Laboratory results published in PMC4601788.

How the values were obtained:
[1] = biological target: Flag-LiPABP (Leishmania infantum) (UniProt A4IBV3); test: pull-down
[2] = biological target: rLiPABP (poly(A)-binding protein) (Leishmania infantum) (UniProt A4IBV3); test: ELONA
[3] = biological target: Myc-LiPABP (Leishmania infantum) (UniProt A4IBV3); test: competition
[4] = biological target: endogenous LiPABP (eLiPABP) (Leishmania infantum) (UniProt A4IBV3); test: competition

| Sequence | binding signal (% of total Flag-LiPABP recovered) [1] | Kd [2] | binding signal (% reduction of poly(A) binding) [3] | binding signal (% reduction of poly(A) binding) [4] |
| --- | --- | --- | --- | --- |
| GCGGATGAAGACTGGTGTCCAGAGTGAACACAAAGAAATTGAAATACGTAAGCTCCGGGCCCTAAATACGAGCAAC [ApPABP#7] | > 75 | 6 nM |  |  |
| GCGGATGAAGACTGGTGTGGACAGTTCTACGAGGATTACGCTGTTACTAAGTGTGGGGGCCCTAAATACGAGCAAC [ApPABP#3] | > 75 | 5.4 nM |  |  |
| GTTGCTCGTATTTAGGGCGGCCCCCTCCTCCCTCCCCCACCCGACACTATTCCCCCCCACACCAGTCTTCATCCGC [ApPABP#11] | < 50 | 10.8 nM | 80 | 30 |
